Results reported in the DeepSol protein solubility set.

assay: soluble on expression in E. coli; label from the status in PepcDB or PDB records

With “AKDAVLSVDGIIVARSSNEITDLIPGATLALSGKTTDPATLSVSRDTQLAEAAMTYMVEELNATMKLLGELTRRSTDGSGSGELAGDRVVETLKRQVTALIGQPLTGHGEKPVYLSQLGVSTNRDGSLSFNASAFQKAFEKTPQIFDAMFTDSLTAITPGASIAGKAASSAASGDYIFRLDPVTGEATVGGGATLALPGANGASQYLVLSGGLAGVMVSVESGVTDATLRFGRSFATQLQALLDTAAGQNGAISDREGQIGKVAEEQAKVIEALDARAAKLESRYLAQFTAMEQAVSRMKSTGTYLENLISAWNKD” as the sequence, how does the “soluble on expression in E. coli” value read?
Its value is “not soluble”.

For “MDREVEAQIGLNNVKILKSNILDSDEGKLFLKFGDEDLVIGELESLKAIQSTETILCPKPFGIIRRNGSYSLITSYIDFQLRKDWALAGSQLAKMHAKNGEQLAQNARRTRFVSVNSGMSDISKSEEGEQIGTENFGFHVTTCCGRLGQENDWTETWEEFFIRHRLKPQIDRLIETHNDRQLFELSEILYTKTAKLLKCRENVLPSLVHGDLWGGNWSMTTADGAPEPIIFDPSSSYSDPEFEFGIMKMFGGWTQDFENKYEKIIKTADGKNQRVLLYELYHNLNHWNHFGNSYRKKEKKLDKIYNNVYNNCYNNVRKNYCTKRITPKSGKLRNKAVRHPDFLANGIRRSPNLNFRSAIVICRSPFAAQPWYVAQLSKLEVMITDLIQM”, which “soluble on expression in E. coli” value is on record?
The value was “not soluble”.

Which “soluble on expression in E. coli” value does the source give for “MKREKKSFHLHMLSDATGETLISVGRAVASQYTMSQATEHIYPMIRNKTQLQRALDEIQQEPGIVLYTIIDKKIKILLRKRCEKIEIPCIDILHPVLNAFKSYLGIPTNLRVSAQHGLNADYFRRIEALDFTIEHDDGQSPNSLSDADVILVGISRTSKTPTSIYLANRGIKTANVPLIPGINLPDTLLGAKNALIIGLIASVERISHIRQNRNLGDDFSLESYTDRINISEELTYAKRICERFSWPVIDVTRRSIEETAAEIFELLSRFREGK” here?
The value was “not soluble”.

Which “soluble on expression in E. coli” value does the source give for “MSLAQIKSLFATRLYHAPLSEHGPALDPAEFAASCYSIAEDDDAGQEWCEREGYPGYTSYASLTDLPWRFPIFADLVKSLDAHVAAFAEDLEFELDGKALRLEDIWINILPEGGVHGSHIHPHSVISGTTYVAMPEGTSALKLEDPRLPFMMAAPTRRKGAREELRTFRSVAPKVGDVLLWESWLRHEVPMNMAEEDRISVSFNYAWGEGHHHHHH” here?
The value was “soluble”.

For “MSRQPKPARLAGGALALGLLLGLPNPVEAAQDNGMEHSAMDHGAMPGMDHGAASPAPAQPMEHRGMDHGRMPGMSHAARQPPAQAASSQSRTPIPVPTEADRRAAFPPLEGHKVHDSALNSFFLLDQLEYQDADDGSALAWDASGWIGGDINRLWLRSEGERLDGKTEDAEVQALFGHAIGPWWDLVAGVRQDFKPGSPQTWAAFGVQGLALYDFEAEVTAFLGENGQSALRLEGEYDILLTNRLILQPSAEVNLYGRNDPARGIGSGLADSELGLRLRYEIRREFAPYIGVTWNRSYGNSADLARAEGEDDDEARFVAGIRMWFLEHHHHHH”, which “soluble on expression in E. coli” value is on record?
The value was “not soluble”.

With “NLEGKGCSVLDQAGLAQKFGPVVSHIRIAARQEDLFAVRIAAGEAHLLLGCDLLVAAGPDAIAKLDSKISHAVINSQQTPTAEFTRNPDAVFPAEAMKQTIIDAVGADKTHFVEATSLATRLMGDSIASNLFMLGYAFQLGLIPLTSAAIEKAIELNGVAVNLNQQAFLWGRRTAHDPAAVEAFVNPQP” as the sequence, how does the “soluble on expression in E. coli” value read?
The value was “not soluble”.

Which “soluble on expression in E. coli” value does the source give for “MGSDKIHHHHHHMRRSSVFAGSDGQLDLFVGAGSNIAARDAQDLMAWPFFSLAKTKRVRPIDFRMGEVSILVEATAEHGMATIWDADVLIWVASQIVEARDCGRSTSRLIAATPHEILSFTRRGTGKASYERLKAGLDRLQSTTVATSIRQPHQRRRHRFSWINEWRECLDSSGRALGIEMIVPDWFYEGVLDAALVLTIDRAYFGLTGGLERWLYRIVRKHGGKQKGGWSFDVAHLHLKSGALSPLKRFAFELRDIVRRQPLPGYRLELEHALGRERLSFVCIPEDSFDAAMRRLGYSGVDNP” here?
The value was “not soluble”.

Which “soluble on expression in E. coli” value does the source give for “MSLPNSEDLRKPDAQREVGRHYPVTLDNQLVSTPEEEVIAPPSVMLRWETYQVANGESAALLFQRAGLSSRVLYELTSSNSDINNQLSKLMPKDELKFGFDKDNQLVQLKRTISPYETFVVTRSDSGFTSEFDKKEVTFQLNYAEAKITSNFWNAGVTAGLSANQIIELANMFGWDIDFALDIREGDQFKLLYQEKIVEGSVIGRGNIIAATFINQGSTFTAILDDNTGNYYDQNGRAMKKAFLRSPLDFRRVSSNFNPRRLHPVTGQIKAHRGTDYVAPVGTPIWAAGDGVVEKSSYNQFNGNYVYIRHSNTYITKYLHLQRRLVKTGERVKQGQTIGTLGGTGRVTGPHLHYEFLVNGIHKNPRTVELPQAQSLTGKAKETFIANAKQRMEKLERYSQLLYANQEGHHHHHH” here?
Its value is “soluble”.

Which “soluble on expression in E. coli” value does the source give for “MNSGPKVSVIMGIYNCERTLAESIESILSQSYKNWELILCDDASTDGTLRIAKQYAAHYSDRIKLIQNKTNKRLAASLNHCLSHATGDYIERQDGDDLSFPRRLEKQVAFLEKHRHYQVVGTGMLVFDEFGVRGARILPSVPEPGIMAKGTPFCHGTIMMRASAYRTLKGYRSVRRTRRMEDIDLWLRFFEEGFRGYNLQEALYKVREDSDAFKRRSFTYSIDNAILVYQACRRLKLPLSDYIYIAKPLIRAFMPAAVMNRYHKKRVMNQKEGLVKHELEHHHHHH” here?
The value was “not soluble”.

With “MKIMILGIDIGGANTKITEIEGDNYKIHHIYFPMWKKKDELEDLLKNYNDNVDYVALVMTAELADCYKTKKEGVEDIIDKVEKAFNCPVYVFDVNGNFLTSEEAKKNYLDVSASNWNATAKFVAEFIKDSCILVDMGSTTTDIIPIKDKEVLAEKTDLDRLMNNQLVYVGTLRTPVSFLANKIEFRGKLTNLSSEYFAITADISLILNKITEEDYTCDTPDGAGKDFESCLTRLVRVLCADREMVKDDELIDFANKLYNKLLELIRENVDTIAKRYNLNDVVITGLGEEILKDALDEYNIISIKETYGKDVSLATPSFAVAKLLQKQLDKLEHHHHHH” as the sequence, how does the “soluble on expression in E. coli” value read?
The value was “not soluble”.

With “MSLLSAFDTTAQRLGTASQNIEKDFWVCWTLDALFNGLSERGPRLLFKGGTSLSKGFGLINRFSEDIDVTVFRDDIGEPATIEELNVLSRNKRRARLDAIKEACQAYINGPLRAELTAILQKRLQAAGLSAGDARVEADGADSDGQTLLIWYPAATPRSDYVRAAIKIESGAKSALDPNSEVPIKAYVDDDLPALDLTVPAVRTVDPERTFWDKVVILHGLRRWFDKRGELRGGGQRVSRHYYDLHRLTAAPVGAAAIDDAALGADCVAHARMFFNRPDYDLATAAPGSFALAPHDEMIEQLRTDYRAMQGMIFGDPPSFEAVLKSINSLETQLNKDIANEGGPTREGHHHHHH” as the sequence, how does the “soluble on expression in E. coli” value read?
Its value is “soluble”.

For “PKIAGIDLGTTYSSIGIYHAVTGETIILPDDLGKKSVPSVVAFLPNGTVLIGTRATEQQEHNPKRTIYDAKRFIGRNFEKNNKDFLSDQKRYPFKINLDSEGKAFFEIPLDSGTKNVYPEEIGSLIIGYLKSAAAKHLGVTLGQVVISCPAEFNEKQRNFTAKAAEIAEMEVRRVISEPTAAALAYGLHKKQGVENVVVVDLGGGTLDVSVLWLQGGVFVTQAMAGNNRLGGQDFNDRVQKHLISKIAEKFGKTIDNKEDIQQIRMEVEKGKIRLTNVPSTTISLNLKTVGKWNYELTRDEFETLNGDLLKAIELPITAALADANLDTADVDEIVLVGGSTQVPAVRKIVGRFFKKSANYGVDPELAVVTGASVQAGVIGGGWPLQVAAMELPAKRRKRHFFTEEQKENEKDRTISEL”, which “soluble on expression in E. coli” value is on record?
The value was “not soluble”.

With “SMPSQQRVKRWGFSFDEILKDQVGRDQFLRFLESEFSSENLRFWLAVQDLKKQPLQDVAKRVEEIWQEFLAPGAPSAINLDSHSYEITSQNVKDGGRYTFEDAQEHIYKLMKSDSYARFLRSNAYQDLLLAKKKGKSLAGKRLTGLMQ” as the sequence, how does the “soluble on expression in E. coli” value read?
Its value is “soluble”.

With “TGKFKWDLGGNISFVKNKLLSLIEGSEMYVVPSSGSNLLGGSMHALINGEPISTFYMLKMEGIYQRDDEVPAKLYAKGVRAGDVRYFDYNEDGDITDADRVNVGKAIPDFYGGITSNFSYKGFDLSLFGQFSVGGKVMAAWRGVNGSEGTDHLGLALSNVKVGDRGESVEQFFNISKEVANGYWRGEGTSNSIPRPVRIGVHTGYDYDYNVQTSTRYLEDASYFKLKTVTLGYTLPESITKKIHVNSLRFYVSADNLLAFTKYSGYDPETSFSGSPGDSNYGVDFGLQPVLRTFIFGLNLNF” as the sequence, how does the “soluble on expression in E. coli” value read?
The value was “not soluble”.

Which “soluble on expression in E. coli” value does the source give for “MGSDKIHHHHHHMNPQTRKRQNLTAVYAALLQLMSQKPLSRISITELCQHAQVSRTYFYRNFANFDQIILAYQKQTILQYLRQLPRQSKVKLQVLMTQYFTLMQQMAATNALLIKNEKTQIFIQSFEAVFALLIKQDRIIGSSNTALRQPYYTAYFSGAVINMLVHWQQNGMVETPAYLAQQVTRFTLRDNESRS” here?
The value was “not soluble”.

Which “soluble on expression in E. coli” value does the source give for “MNLIGKWIVGVGESVLNRMPLVRPIYKSIKQLFESVLKEHSNSFKKVGLIEFPSSGTWAMVFVSSEVKGELAHRFNEMGQQMVAVFLPPTPVPTAGFLLFVPKDKIVMLDMTPEDAAKLLISGGLVAPDFTPPKVIAPVLEHHHHHH” here?
The value was “soluble”.

With “MKQSLFGRVRDAILADFHNVLDEKERKNPIAMLNQYLRDSEREITKIEKLIERHKTLKSNFARELEQARYFVNKRSKQAIIAQEADELQLHERALEEVAYYEGQVTRLEEMYAGVVEQIDELERRLSEMKNKLKEMHAKRMELMARENMAHANRRMNTAMHKMDENNPFLRFEEIEDHIRDLETRMNEEHERDTFDMKIAKLEREMKEKNDVSLTKELTKLEHHHHHH” as the sequence, how does the “soluble on expression in E. coli” value read?
Its value is “soluble”.

With “MAKNDIWTPLESNPDSLYLYSCKLGQSKLKFVDIYGFNNDLLDMIPQPVQAVIFLYPVNDNIVSENNTNDKHNLKENFDNVWFIKQYIPNSCGTIALLHLYGNLRNKFELDKDSVLDDFFNKVNEMSAEKRGQELKNNKSIENLHHEFCGQVENRDDILDVDTHFIVFVQIEGKIIELDGRKDHPTVHCFTNGDNFLYDTGKIIQDKFIEKCKDDLRFSALAVIPNDNFDII” as the sequence, how does the “soluble on expression in E. coli” value read?
Its value is “soluble”.

Which “soluble on expression in E. coli” value does the source give for “MGSDKIHHHHHHMEFTSLWQEFARISEVEAIALGGSRATGNYDETSDYDLYIYCSSIPDEATRLTILKSFCSYIEIGNHFWELEDDCTLMSGQDIDILYRDINQIRDELVDVVERCIIQNAYTTCLWHNVLHSKILYDSDDKLKCIVNRFDINYPQKLKQTILSHHMNLLTGHLPSYDKQIIKAVMRKDIVSFNHRVTAFLETYFDLIFALNMLTHPGEKRMIAYAEQNAQSLPNHFQKNIERLIYGTTCHPYDIQDILNDILNELTPLLHDSIG” here?
The value was “not soluble”.

For “MEALRLEGVSKRYGRRPVLEGVSLSVRPGEVYALAGPNGSGKTTLIRLATGLAFPTKGRAFLLGEDVHKSPAARRHLGAVVEAPAAFYPYLTGRENLRMHARLSGVEDEARIGEVLARLKLLAVADQKVEGYSLGQRQRLGLAAAILHRPKVLVLDEPTSGLDPEGVELVHRLLQELAREGVAILLSTHHLQEVARYAHRVGILGGGRLLDEVVLSGKEAYRLEAEPLEGALALLKTLPQVASARLQGRSVVFEGEPEAALRALLAEGYRVRALAPHRFDLLDYYQERVRHV”, which “soluble on expression in E. coli” value is on record?
The value was “soluble”.

For “GPGSMSNSGCGLPGDVDPDLPLTPDGVTYHVACSSERLADRIILVGDPDRVKMVSTYLDAGSIVYEASHREIKVVTGAYHGVPVTVLSTGMGTDNVEIVMNEVHILKEYDTQKRRWRARVGDDTPADPLETPFDPSRVKLIRVGTCGTPNDAVQIGCLAITRYAVGMDNTCQYYDAPAVNHTVDVKEVLAKVQATSLGKVQVYATKAAPAITQGLVDACTALNRKVGVSEQQPYYVGTTCSGSGFYGCQGRSVGRFRGHLTVPHLTEELGDLRFNVSEGEQRVANIEMENSALCYLSNLLGYQAGTVCVVIARRSRTNRAFATPEQLAKGLSHAITIALETLIKE”, which “soluble on expression in E. coli” value is on record?
Its value is “not soluble”.
